From IntAct's records for PubMed 18055455

B1: Mothers against decapentaplegic homolog 3 (Rattus norvegicus (Rat)), P84025 (parent)
chain: MSSILPFTPPIVKRLLGWKKGEQNGQEEKWCEKAVKSLVKKLKKTGQLDELEKAITTQNVNTKCITIPRSLDGRLQVSHRKGLPHVIYCRLWRWPDLHSHHELRAMELCEFAFNMKKDEVCVNPYHYQRVETPVLPPVLVPRHTEIPAEFPPLDDYSHSIPENTNFPAGIEPQSNIPETPPPGYLSEDGETSDHQMNHSMDAGSPNLSPNPMSPAHNNLDLQPVTYCEPAFWCSISYYELNQRVGETFHASQPSMTVDGFTDPSNSERFCLGLLSNVNRNAAVELTRRHIGRGVRLYYIGGEVFAECLSDSAIFVQSPNCNQRYGWHPATVCKIPPGCNLKIFNNQEFAALLAQSVNQGFEAVYQLTRMCTIRMSFVKGWGAEYRRQTVTSTPCWIELHLNGPLQWLDKVLTQMGSPSIRCSSVS

Variants of: B1
Conditions: with ncap_sars N

Row | Variant | effect of a mutation on the interaction
1 | S423D;S425D | with no effect
2 | S422A;S423A;S425A | with no effect
